From article PMC9092175

Key:
[1] = target: plant virus-based immunosorbent nanoparticle (VIN): assembled turnip vein clearing virus (TVCV) virion of coat protein Fc-affinity ligand fusion (CP-FcAL) (turnip vein clearing virus | S. aureus) (UniProt Q88922); assay: co-sedimentation; affinity sedimentation: purified VIN mixed in free suspension with a pre-purified target; VIN-target complex pelleted (12,000 x g, 10 min for hIgG; 20,000 x g, 20 min for the Fc-fusions); eluted with 0.1 M glycine-HCl pH 2.5; SDS-PAGE and Western blot
[2] = target: plant virus-based immunosorbent nanoparticle (VIN): assembled turnip vein clearing virus (TVCV) virion of coat protein Fc-affinity ligand fusion (CP-FcAL) (turnip vein clearing virus | S. aureus) (UniProt Q88922); assay: pull-down; magnetic separation: VIN covalently coupled to superparamagnetic particles (VIN-MP), hIgG in PBS; eluted with 0.2 M glycine buffer pH 2.5

## human immunoglobulin G (hIgG) (antibody)
[1]
  recovery of the feed hIgG: 95%
[2]
  binding capacity per mass of magnetic particle (µg hIgG/mg MP): > 1000
  hIgG binding/elution load per mass of VIN (mg hIgG/mg VIN): 0.3
  hIgG elution recovery per mass of VIN, VIN-MP relative to uncoupled VIN: 35 to 55%
  recovery of the feed hIgG: 42%
